Reference: patent US20140378382A1 (WISCONSIN ALUMNI RESEARCH FOUNDATION, published 2014)
Like-named read-outs stand apart in the source and are kept apart here. Non-standard residues stand in square brackets, D forms with d. No end group written: not given here. β3hW = N[C@H](CC(=O)O)Cc1c[nH]c2ccccc12; β3hE = N[C@@H](CCC(=O)O)CC(=O)O; β3hF = N[C@H](CC(=O)O)Cc1ccccc1; β3hK = NCCCC[C@H](N)CC(=O)O; β3hM = CSCC[C@H](N)CC(=O)O; β3hD = NC(CC(=O)O)CC(=O)O

Columns and labels:
[1] = molecular target: T1, human parathyroid hormone receptor 1, wild-type (hPTHR-1) (human, UniProt Q03431 27-593); experiment: R0 state; 125I-PTH(1-34) displacement; COS-7 membranes, hPTHR-1, GTPγS
T1 construct: whole, on cells; also called human PTHR-1; PTHR-1-WT
T1 sequence (looked up): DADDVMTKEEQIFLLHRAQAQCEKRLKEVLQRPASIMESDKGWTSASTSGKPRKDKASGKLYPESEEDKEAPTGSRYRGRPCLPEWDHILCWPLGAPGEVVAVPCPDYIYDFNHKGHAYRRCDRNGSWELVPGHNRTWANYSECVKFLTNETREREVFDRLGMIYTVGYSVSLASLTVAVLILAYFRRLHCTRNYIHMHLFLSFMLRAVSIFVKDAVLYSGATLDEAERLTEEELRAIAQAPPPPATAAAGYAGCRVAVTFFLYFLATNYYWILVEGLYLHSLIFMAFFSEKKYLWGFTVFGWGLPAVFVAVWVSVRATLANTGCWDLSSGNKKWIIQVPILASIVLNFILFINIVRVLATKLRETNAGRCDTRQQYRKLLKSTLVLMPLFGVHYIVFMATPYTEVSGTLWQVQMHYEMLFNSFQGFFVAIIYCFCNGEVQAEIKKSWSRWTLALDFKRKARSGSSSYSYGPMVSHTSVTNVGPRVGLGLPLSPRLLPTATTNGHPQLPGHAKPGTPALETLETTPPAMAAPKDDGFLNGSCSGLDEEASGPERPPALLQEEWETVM
Source text: (§1) ^aValues are means of n ≧4 experiments, each performed in duplicate.

[2] = molecular target: T2, rat parathyroid hormone receptor 1, wild-type (rPTHR-1) (rat, UniProt P25961 27-591); experiment: cell-based or functional assay; design: AUC-on / AUC-washout: unit not given beside the values
T2 sequence (looked up): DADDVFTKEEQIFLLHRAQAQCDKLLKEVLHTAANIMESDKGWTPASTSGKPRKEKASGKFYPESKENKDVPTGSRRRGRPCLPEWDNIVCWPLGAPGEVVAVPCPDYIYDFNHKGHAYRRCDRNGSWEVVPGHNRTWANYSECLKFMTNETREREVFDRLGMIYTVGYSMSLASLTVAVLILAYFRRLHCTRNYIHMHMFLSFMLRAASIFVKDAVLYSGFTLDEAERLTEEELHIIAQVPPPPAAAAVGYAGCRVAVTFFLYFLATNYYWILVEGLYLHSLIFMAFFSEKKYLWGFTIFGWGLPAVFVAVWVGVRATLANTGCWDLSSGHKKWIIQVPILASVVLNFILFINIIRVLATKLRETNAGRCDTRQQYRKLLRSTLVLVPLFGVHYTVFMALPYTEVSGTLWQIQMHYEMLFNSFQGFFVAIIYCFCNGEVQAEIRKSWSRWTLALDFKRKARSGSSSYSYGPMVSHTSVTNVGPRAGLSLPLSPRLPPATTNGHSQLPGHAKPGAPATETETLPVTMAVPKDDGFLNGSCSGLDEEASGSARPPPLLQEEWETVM

[3] = molecular target: T3, PTHR-1 (species and cells not stated for the assay) (Homo sapiens (Human), UniProt Q03431 27-593); experiment: cell-based or functional assay
T3 sequence: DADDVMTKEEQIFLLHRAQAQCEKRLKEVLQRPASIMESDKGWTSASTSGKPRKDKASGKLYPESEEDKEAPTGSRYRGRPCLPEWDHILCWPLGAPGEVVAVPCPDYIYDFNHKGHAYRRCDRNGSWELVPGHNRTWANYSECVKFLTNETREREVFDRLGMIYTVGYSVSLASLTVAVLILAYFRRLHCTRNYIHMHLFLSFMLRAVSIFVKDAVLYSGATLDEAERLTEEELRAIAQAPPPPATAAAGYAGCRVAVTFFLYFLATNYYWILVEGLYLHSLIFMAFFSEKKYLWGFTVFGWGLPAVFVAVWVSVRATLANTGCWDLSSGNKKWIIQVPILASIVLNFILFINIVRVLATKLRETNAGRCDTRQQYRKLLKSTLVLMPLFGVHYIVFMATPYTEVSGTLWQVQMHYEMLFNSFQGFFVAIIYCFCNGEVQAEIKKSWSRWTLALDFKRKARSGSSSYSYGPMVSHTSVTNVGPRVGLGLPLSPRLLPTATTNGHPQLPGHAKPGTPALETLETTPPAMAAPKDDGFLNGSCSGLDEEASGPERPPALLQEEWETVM

[4] = molecular target: T2, rat parathyroid hormone receptor 1, …; experiment: cell-based or functional assay
[5] = molecular target: T2, rat parathyroid hormone receptor 1, …; experiment: cell-based or functional assay; remark: listed apart in the source
[6] = molecular target: T1, human parathyroid hormone receptor 1, …; experiment: RG state; 125I-M-PTH(1-15) displacement; COS-7 membranes, hPTHR-1 + Gαs mutant
Source text: as §1

[7] = molecular target: T2, rat parathyroid hormone receptor 1, …; experiment: ratio of R0 IC50 to RG IC50, rPTHR-1
Source text: (§2) Binding inhibition constants are expressed as the -log (IC50) and corresponding nanoMolar (nM) values. Values are means (±SEM) of the number of experiments shown (n), each performed in duplicate.

[8] = molecular target: T2, rat parathyroid hormone receptor 1, …; experiment: R0 state; 125I-PTH(1-34) displacement; COS-7 membranes, rPTHR-1, GTPγS
Source text: as §2

[9] = molecular target: T1, human parathyroid hormone receptor 1, …; experiment: cell-based or functional assay
[10] = molecular target: T1, human parathyroid hormone receptor 1, …; experiment: cell-based or functional assay; remark: listed apart in the source
[11] = molecular target: T2, rat parathyroid hormone receptor 1, …; experiment: RG state; 125I-M-PTH(1-15) displacement; COS-7 membranes, rPTHR-1 + Gαs mutant
Source text: as §2

[12] = molecular target: T3, PTHR-1 (species and cells not stated …); experiment: cell-based or functional assay; remark: listed apart in the source
[13] = molecular target: T2, rat parathyroid hormone receptor 1, …; experiment: R0 state; 125I-PTH(1-34) displacement; COS-7 membranes, rPTHR-1, GTPγS; remark: listed apart in the source
Source text: as §2

[14] = molecular target: T1, human parathyroid hormone receptor 1, …; experiment: RG state; 125I-M-PTH(1-15) displacement; COS-7 membranes, hPTHR-1 + Gαs mutant; remark: listed apart in the source
Source text: (§3) FIGS. 6A, 6B, 6C, 6D, 6E, and 6F constitute a series of graphs depicting binding of various analogs to the R⁰ and RG forms of human PTHR-1 (hPTHR-1). […] Data are means (±SEM) of n≧4 experiments, each performed in duplicate.

[15] = molecular target: T1, human parathyroid hormone receptor 1, …; experiment: R0 state; 125I-PTH(1-34) displacement; COS-7 membranes, hPTHR-1, GTPγS; remark: listed apart in the source
Source text: as §3

[16] = molecular target: T2, rat parathyroid hormone receptor 1, …; experiment: RG state; 125I-M-PTH(1-15) displacement; COS-7 membranes, rPTHR-1 + Gαs mutant; remark: listed apart in the source
Source text: as §2

[17] = molecular target: T1, human parathyroid hormone receptor 1, …; experiment: ratio of R0 IC50 to RG IC50, hPTHR-1

Binder: SVSEIQLMHNLGK[β3hW]LNS[β3hM]ERV[β3hE]WLR[β3hK]KLQ[β3hD]VHN[β3hF]-NH2 (also called α/β-peptide D6) [D6]
- IC50 [1]: 2 nM
- AUC Ratio [2]: 1.5
- AUC-on [2]: 100000
- AUC-washout [2]: 130000
- cAMP response PTH1R/PTH2R [3]: 33 ratio
- cAMP EC50 [4]: 0.33 nM
- cAMP Max [4]: 0.76 relative to PTH(1-34)
- Fold PTH(1-34) [5]: 0.79 fold
- cAMP EC50 [5]: 0.33 nM
- cAMP Max [5]: 50 cps × 10-3
- cAMP pEC50 [5]: 9.48
- IC50 [6]: 0.065 nM
- R^0/RG [7]: 8 ratio
- -log (IC50) [8]: 8.22
- IC50 [8]: 6.1 nM
- Fold PTH(1-34) [9]: 0.76 fold
- cAMP EC50 [9]: 0.13 nM
- cAMP Max [9]: 189 cps × 10^-3
- cAMP pEC50 [9]: 9.89
- cAMP EC50 [10]: 0.13 nM
- cAMP Max [10]: 0.87 relative to PTH(1-34)
- -log (IC50) [11]: 9.09
- IC50 [11]: 0.81 nM
- Fold PTH [12]: 2.1 fold
- cAMP EC50 [12]: 0.17 nM
- IC50 [13]: 6.1 nM
- -log (IC50) [14]: 10.2
- IC50 [14]: 0.065 nM
- -log (IC50) [15]: 8.69
- IC50 [15]: 2 nM
- IC50 [16]: 0.81 nM
- R^0/RG [17]: 31 ratio
